Measured values as given in patent US20230365640A1 (ACADEMIA SINICA, published 2023).

B1: Dectin-1.Fc (CLEC7A) protein (Fc fusion)
chain: TMAIWRSNSGSNTLENGYFLSRNKENHSQPTQSSLEDSVTPTKAVKTTGVLSSPCPPNWIIYEKSCYLFSMSLNSWDGSKRQCWQLGSNLLKIDSSNELGFIVKQVSSQPDNSFWIGLSRPQTEVPWLWEDGSTFSSNLFQIRTTATQENPSPNCVWIHVSVIYDQLCSVPSYSICEKKFSM
B2: Mincle.Fc (CLEC4F) protein (Fc fusion)
chain: RCVVTFRIFQTCDEKKFQLPENFTELSCYNYGSGSVKNCCPLNWEYFQSSCYFFSTDTISWALSLKNCSAMGAHLVVINSQEEQEFLSYKKPKMREFFIGLSDQVVEGQWQWVDGTPLTKSLSFWDVGEPNNIATLEDCATMRDSSNPRQNWNDVTCFLNYFRICEMVGINPLNKGKSL
B3: Dectin-2.Fc (CLEC6A) protein (Fc fusion)
chain: TYHFTYGETGKRLSELHSYHSSLTCFSEGTKVPAWGCCPASWKSFGSSCYFISSEEKVWSKSEQNCVEMGAHLVVFNTEAEQNFIVQQLNESFSYFLGLSDPQGNNNWQWIDKTPYEKNVRFWHLGEPNHSAEQCASIVFWKPTGWGWNDVICETRRNSICEMNKIYL
B4: CLEC5A.Fc protein (Fc fusion)
chain: PQIFNKSNDGFTTTRSYGTVSQIFGSSSPSPNGFITTRSYGTVCPKDWEFYQARCFFLSTSESSWNESRDFCKGKGSTLAIVNTPEKLKFLQDITDAEKYFIGLIYHREEKRWRWINNSVFNGNVTNQNQNFNCATIGLTKTFDAASCDISYRRICEKNAK

Target: recombinant SARS-CoV-2 RBD (His-tagged SARS-CoV-2 RBD fusion protein) (SARS-CoV-2, UniProt P0DTC2 328-585)
Assay: ELISA

Binder	binding result
B1	no binding (tested: 50 µg/ml)
B2	no binding (tested: 50 µg/ml)
B3	no binding (tested: 50 µg/ml)
B4	no binding (tested: 50 µg/ml)
